Measurements taken from paper PMC11339278 (2024).

T1: SNX17ΔC (residue 1-390) with an intramolecular decaHis tag (human, UniProt Q15036 1-390)
T1 chain: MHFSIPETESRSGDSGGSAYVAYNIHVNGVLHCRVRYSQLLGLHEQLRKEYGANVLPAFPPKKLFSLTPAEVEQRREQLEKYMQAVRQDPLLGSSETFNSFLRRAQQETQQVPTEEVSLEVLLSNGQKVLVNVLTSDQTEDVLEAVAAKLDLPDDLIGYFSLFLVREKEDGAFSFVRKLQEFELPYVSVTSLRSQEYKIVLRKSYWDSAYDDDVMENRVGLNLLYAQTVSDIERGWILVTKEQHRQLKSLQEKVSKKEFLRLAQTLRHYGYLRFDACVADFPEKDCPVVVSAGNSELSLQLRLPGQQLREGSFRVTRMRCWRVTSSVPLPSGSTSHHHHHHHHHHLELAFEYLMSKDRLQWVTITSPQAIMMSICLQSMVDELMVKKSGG

T2: SNX17 full length (residue 1-470) with an intramolecular decaHis tag (human, UniProt Q15036 1-470)
T2 chain: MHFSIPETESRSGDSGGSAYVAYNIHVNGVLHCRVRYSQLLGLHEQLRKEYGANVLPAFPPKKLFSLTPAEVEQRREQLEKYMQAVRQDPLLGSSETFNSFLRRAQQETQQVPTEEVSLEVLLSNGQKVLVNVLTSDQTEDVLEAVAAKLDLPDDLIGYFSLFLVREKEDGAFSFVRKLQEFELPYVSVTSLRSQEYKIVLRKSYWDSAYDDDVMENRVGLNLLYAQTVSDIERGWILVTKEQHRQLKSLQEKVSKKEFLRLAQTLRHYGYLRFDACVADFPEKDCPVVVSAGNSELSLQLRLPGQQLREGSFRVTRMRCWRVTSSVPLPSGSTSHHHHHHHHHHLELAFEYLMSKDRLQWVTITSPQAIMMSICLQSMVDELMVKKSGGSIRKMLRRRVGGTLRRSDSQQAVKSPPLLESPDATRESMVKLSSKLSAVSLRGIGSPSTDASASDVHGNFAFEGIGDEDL


Legend:
CCDC22 (endogenous) = test: GFP-nanotrap pull-down, quantitative western blot; conditions: HEK293T cells, transient co-transfection; n = 3; parent: est. 1.0; read off a plot
CCDC93 (endogenous) = test: GFP-nanotrap pull-down, quantitative western blot; conditions: HEK293T cells, transient co-transfection; n = 3; parent: est. 1.0; read off a plot
VPS29 (endogenous) = test: GFP-nanotrap pull-down, quantitative western blot; conditions: HEK293T cells, transient co-transfection; n = 3; parent: est. 1.0; read off a plot
[1] = biological target: SNX17 full length (residue 1-470) with an intramolecular decaHis tag (human) (UniProt Q15036); test: ITC; APP or LRP1 peptide at 250 μM injected into 20 μM SNX17 FL or SNX17ΔC; 13 x 3.22 μL; 10 °C; 500 mM NaCl, 100 mM Tris pH 8.0, 5% glycerol; single site binding model
[2] = biological target: SNX17ΔC (residue 1-390) with an intramolecular decaHis tag (human) (UniProt Q15036); test: as above
[3] = biological target: T1, SNX17ΔC (residue 1-390) with an …; test: ITC
[4] = biological target: T2, SNX17 full length (residue 1-470) with …; test: ITC
[5] = biological target: SNX17 full length (residue 1-470) with an intramolecular decaHis tag (human) (UniProt Q15036); test: ITC; Microcal PEAQ, 10 °C, 500 mM NaCl, 100 mM Tris pH 8.0, 5% glycerol; 250 µM APP or LRP1 peptide, or 2 mM SNX17 tail peptide, injected into 20 µM SNX17 FL or SNX17ΔC; single site binding model
[6] = biological target: SNX17ΔC (residue 1-390) with an intramolecular decaHis tag (human) (UniProt Q15036); test: ITC; 2 mM SNX17 tail peptide injected into 20 μM SNX17 FL or SNX17ΔC; 13 x 3.22 μL; 10 °C; 500 mM NaCl, 100 mM Tris pH 8.0, 5% glycerol; single site binding model

| Molecule | ratio to parent (CCDC22 (endogenous)) | ratio to parent (CCDC93 (endogenous)) | ratio to parent (VPS29 (endogenous)) | Kd [1] [µM] | Kd [2] [µM] | Kd [3] [µM] | Kd [4] [µM] | fold lower affinity than for SNX17ΔC [5] [fold] | Kd [6] [µM] |
| --- | --- | --- | --- | --- | --- | --- | --- | --- | --- |
| VPS35L-GFP (from UniProt Q7Z3J2-1) W280A | 0.75 | 0.73 | 0.62 |  |  |  |  |  |  |
| VPS35L-GFP (from UniProt Q7Z3J2-1) K283E | 0.95 | 0.88 | 0.97 |  |  |  |  |  |  |
| VPS35L-GFP (from UniProt Q7Z3J2-1) R248A | 1 | 1.1 | 1.1 |  |  |  |  |  |  |
| VEIGNPTYKMYEGG [LRP1 cargo recognition peptide (4466-4479)] |  |  |  | 14.3 | 4.6 | 3.64 | 13.6 | 2 |  |
| NGYENPTYKFFEQM [APP cargo recognition peptide (755-768)] |  |  |  | 16 | 7.03 | 4.74 | 14.8 | 2 |  |
| SASDVHGNFAFEGIGDEDL [synthetic peptide of the SNX17 tail (452-470)] |  |  |  |  |  | 116 |  |  | 189 |
